IntAct's records for PubMed 29688405

Assays:
frem2_human FREM2 = frem2_human FREM2 (UniProt Q5SZK8)
frem1_human FREM1 = frem1_human FREM1 (UniProt Q5H8C1)
Chain of UniProt Q5H8C1 (Q5H8C1 whole entry): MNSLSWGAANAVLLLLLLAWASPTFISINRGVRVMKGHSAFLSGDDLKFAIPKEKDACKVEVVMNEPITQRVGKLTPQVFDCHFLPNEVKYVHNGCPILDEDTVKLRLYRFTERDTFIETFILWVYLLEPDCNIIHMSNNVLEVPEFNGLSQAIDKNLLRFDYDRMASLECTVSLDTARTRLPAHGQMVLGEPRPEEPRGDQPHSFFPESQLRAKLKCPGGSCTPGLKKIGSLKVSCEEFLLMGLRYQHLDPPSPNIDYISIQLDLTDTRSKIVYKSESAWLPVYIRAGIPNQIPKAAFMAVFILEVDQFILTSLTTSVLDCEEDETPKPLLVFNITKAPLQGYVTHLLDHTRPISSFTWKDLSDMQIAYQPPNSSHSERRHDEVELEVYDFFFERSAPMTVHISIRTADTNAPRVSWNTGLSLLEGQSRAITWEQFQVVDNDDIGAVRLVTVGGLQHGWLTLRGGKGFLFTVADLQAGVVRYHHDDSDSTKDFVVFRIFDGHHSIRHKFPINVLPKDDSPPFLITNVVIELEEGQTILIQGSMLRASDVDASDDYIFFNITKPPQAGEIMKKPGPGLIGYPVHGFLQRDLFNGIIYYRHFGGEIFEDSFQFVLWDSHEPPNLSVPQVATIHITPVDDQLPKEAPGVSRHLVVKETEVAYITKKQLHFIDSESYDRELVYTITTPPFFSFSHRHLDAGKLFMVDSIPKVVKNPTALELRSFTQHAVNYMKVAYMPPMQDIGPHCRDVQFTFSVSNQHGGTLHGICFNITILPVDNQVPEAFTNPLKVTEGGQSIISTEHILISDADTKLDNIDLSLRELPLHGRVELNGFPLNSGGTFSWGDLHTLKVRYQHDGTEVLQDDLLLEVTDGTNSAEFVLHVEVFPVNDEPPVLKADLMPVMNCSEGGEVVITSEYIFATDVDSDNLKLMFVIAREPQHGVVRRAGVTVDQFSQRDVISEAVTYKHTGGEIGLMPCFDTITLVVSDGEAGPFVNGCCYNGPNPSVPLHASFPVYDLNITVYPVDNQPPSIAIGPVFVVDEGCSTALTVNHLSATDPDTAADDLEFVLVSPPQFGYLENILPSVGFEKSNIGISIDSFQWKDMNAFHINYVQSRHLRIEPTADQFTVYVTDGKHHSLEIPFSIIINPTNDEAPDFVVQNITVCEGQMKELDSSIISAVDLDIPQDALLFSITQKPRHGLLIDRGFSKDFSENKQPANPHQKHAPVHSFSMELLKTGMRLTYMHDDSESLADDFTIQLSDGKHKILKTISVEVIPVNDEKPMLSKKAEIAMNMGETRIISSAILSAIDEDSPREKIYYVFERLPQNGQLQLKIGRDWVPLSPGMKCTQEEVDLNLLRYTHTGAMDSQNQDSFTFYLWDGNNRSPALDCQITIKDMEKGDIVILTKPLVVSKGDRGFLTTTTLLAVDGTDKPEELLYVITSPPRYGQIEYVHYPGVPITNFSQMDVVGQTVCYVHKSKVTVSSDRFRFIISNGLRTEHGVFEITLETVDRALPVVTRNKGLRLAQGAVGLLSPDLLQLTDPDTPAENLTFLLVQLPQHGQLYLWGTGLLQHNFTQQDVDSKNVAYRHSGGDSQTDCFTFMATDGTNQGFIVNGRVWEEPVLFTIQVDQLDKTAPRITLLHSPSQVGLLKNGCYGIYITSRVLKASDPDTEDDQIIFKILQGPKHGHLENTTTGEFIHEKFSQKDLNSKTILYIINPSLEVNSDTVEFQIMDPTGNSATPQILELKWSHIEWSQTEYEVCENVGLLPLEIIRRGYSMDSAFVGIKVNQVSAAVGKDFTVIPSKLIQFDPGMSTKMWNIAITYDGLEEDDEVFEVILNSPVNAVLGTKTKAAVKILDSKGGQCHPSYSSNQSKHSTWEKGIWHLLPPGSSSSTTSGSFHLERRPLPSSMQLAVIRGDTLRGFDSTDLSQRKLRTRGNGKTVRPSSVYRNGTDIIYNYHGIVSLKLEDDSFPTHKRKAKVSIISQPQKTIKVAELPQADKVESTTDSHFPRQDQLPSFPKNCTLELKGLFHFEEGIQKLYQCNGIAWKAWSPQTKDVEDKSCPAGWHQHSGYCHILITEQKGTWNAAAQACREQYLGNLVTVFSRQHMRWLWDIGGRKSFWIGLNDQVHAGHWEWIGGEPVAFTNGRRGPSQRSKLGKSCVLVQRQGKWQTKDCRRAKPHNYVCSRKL

Row | effect of a mutation on the interaction (frem2_human FREM2) | effect of a mutation on the interaction (frem1_human FREM1) | Substance
1 | disrupting interaction strength | – | FRAS1-related extracellular matrix protein 1 (Homo sapiens), Q5H8C1 L1324R
2 | – | disrupting interaction strength | FRAS1-related extracellular matrix protein 2 (Homo sapiens), Q5SZK8 E1972K
3 | disrupting interaction strength | – | FRAS1-related extracellular matrix protein 1 (Homo sapiens), Q5H8C1 R649W
4 | – | decreasing interaction strength | FRAS1-related extracellular matrix protein 2 (Homo sapiens), Q5SZK8 R2167W
